The values that follow come from paper PMC4356968, “Characterization of the MCM homohexamer from the thermoacidophilic euryarchaeon Picrophilus torridus” (Scientific Reports, 2015).

One experiment concerns the target T1, PtMCM (Picrophilus oshimae, UniProt A0A8G2FX57, K337A).
T1 construct: gene SAMN02745355_1050; full length, N-terminal 6xHis and C-terminal Strep-tag kept; E. coli BL21 Codon Plus; tagged monomer 81 kDa (untagged ~76 kDa); homohexamer
The experiment can be described thus: ATP hydrolysis, gamma-32P ATP tracer, TLC. The experiment is classed as biochemical. The settings on record: pH 6.0, 55 °C, 10 or 100 uM ATP, no DNA, 800 nM protein, 60 min; Walker A mutant.

In experiment [1] the target is His-PtMCM-Strep (Picrophilus torridus MCM, recombinant) (Picrophilus torridus).
For experiment [2] the target is unchanged. The source holds these as a separate data set.
Experiment [3] has the same target. The source holds these as a separate data set.
For experiment [4], the target named is His-PtGINS (Picrophilus torridus GINS, recombinant) (Picrophilus torridus). The experiment can be described thus: SEC; Superdex 200 10/300 GL calibrated with protein standards, 50 mM potassium phosphate pH 7.4, 150 mM NaCl; molecular weight from retention volume; PtMCM 400 ug, profile unchanged over 1.5 to 5 uM protein.
Experiment [5] deals with His-PtMCM-Strep (Picrophilus torridus MCM, recombinant) (Picrophilus torridus). Described as above.

Bounds are passed on as bounds.

T1 sequence (A0A8G2FX57 entry or part of it K337A): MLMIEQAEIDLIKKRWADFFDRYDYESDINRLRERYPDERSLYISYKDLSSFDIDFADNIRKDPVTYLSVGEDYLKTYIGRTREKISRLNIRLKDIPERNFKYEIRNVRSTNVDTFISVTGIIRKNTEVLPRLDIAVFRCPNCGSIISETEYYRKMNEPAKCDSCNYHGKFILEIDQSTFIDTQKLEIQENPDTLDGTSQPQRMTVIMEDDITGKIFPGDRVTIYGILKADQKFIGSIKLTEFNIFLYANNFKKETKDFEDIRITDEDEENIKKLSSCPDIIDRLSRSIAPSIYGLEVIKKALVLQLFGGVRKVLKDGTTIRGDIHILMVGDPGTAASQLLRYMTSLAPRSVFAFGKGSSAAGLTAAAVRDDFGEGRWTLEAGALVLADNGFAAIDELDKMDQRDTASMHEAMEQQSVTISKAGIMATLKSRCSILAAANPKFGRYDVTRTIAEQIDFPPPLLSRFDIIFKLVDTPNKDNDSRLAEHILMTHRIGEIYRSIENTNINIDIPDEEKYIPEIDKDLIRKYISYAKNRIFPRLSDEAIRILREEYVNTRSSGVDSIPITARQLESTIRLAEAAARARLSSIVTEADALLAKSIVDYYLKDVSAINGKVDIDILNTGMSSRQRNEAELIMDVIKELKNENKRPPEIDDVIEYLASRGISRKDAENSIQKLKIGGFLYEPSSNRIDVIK

With `Nc1ncnc2c1ncn2[C@@H]1O[C@H](COP(=O)(O)OP(=O)(O)OP(=O)(O)O)[C@@H](O)[C@H]1O` [ATP], the “ATP hydrolysis, gamma-32P ATP tracer, TLC” value on PtMCM is listed as “ATPase activity was drastically diminished in case of the mutant PtMCM-K337A”.

For “His-PtGINS (Picrophilus torridus GINS, recombinant) (natural protein)”, the ATP hydrolysed during the helicase reaction at pH 6, 3-5 mM ATP, 500 nM PtMCM and 3000 nM PtGINS, 60 min; fold stimulation by GINS in experiment [1] was 2 fold. In experiment [2], the ATP hydrolysed during the helicase reaction at pH 4, 5 mM ATP, 500 nM PtMCM and 3000 nM PtGINS, 60 min; fold stimulation by GINS is greater than 50 fold. In addition, the MCM ATP hydrolysis with 100 uM ATP, 500 nM PtMCM and 3000 nM PtGINS, pH 3-7, with or without DNA, 60 min; fold increase with GINS at lower pH (no effect at pH 5-7) in experiment [3] was found to be 2 fold. The stoichiometry N in experiment [4] came to 4.

On to “His-PtMCM-Strep (Picrophilus torridus MCM, recombinant) (enzyme)”, for which, in experiment [5], the stoichiometry N turned out to be 6.

What is called stoichiometry N is a count of units in the complex or per binding partner.
